Each sequence was assayed against FGFR3 (UniProt P22607) (assay: phosphorylation enrichment, bacterial display (enrichment ratio); higher = better substrate or ligand; peptides without Tyr show the background).
Chain of FGFR3 (P22607 whole entry, looked up): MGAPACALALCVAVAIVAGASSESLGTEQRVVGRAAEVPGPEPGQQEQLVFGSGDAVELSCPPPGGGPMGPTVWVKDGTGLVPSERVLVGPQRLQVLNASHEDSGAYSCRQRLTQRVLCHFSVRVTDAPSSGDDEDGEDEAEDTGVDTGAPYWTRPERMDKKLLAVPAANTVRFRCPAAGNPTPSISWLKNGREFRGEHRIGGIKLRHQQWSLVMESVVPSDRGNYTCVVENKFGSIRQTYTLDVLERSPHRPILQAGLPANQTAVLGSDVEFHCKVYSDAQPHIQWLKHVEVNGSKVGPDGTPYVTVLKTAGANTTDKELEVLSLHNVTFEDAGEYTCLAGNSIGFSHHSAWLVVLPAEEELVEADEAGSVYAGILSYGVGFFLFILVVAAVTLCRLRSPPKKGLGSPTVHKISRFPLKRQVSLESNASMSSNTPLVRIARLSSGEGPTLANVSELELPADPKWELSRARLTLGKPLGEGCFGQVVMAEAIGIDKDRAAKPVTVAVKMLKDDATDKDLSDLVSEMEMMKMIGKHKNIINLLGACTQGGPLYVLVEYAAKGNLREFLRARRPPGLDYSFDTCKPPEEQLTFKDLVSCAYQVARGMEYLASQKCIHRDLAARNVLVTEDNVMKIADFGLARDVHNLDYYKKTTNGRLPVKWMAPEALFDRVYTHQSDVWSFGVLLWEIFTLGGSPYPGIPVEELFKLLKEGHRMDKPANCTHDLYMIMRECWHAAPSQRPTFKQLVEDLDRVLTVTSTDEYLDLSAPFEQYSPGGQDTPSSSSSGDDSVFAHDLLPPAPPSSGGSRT
For DENWFYMRAAS [RPS19_Y54_T55M], the phosphorylation enrichment was 0.933. With LSFSEYASVQV [SIRPA_Y496_P491L] the phosphorylation enrichment was 2.1. ANFAKYGNPNE [BCHE_Y505] showed a phosphorylation enrichment of 0.426. In the case of VECRVYAEDPY [PCCA_Y401], the phosphorylation enrichment is reported as 1.13. LQFKNYQQLFD [MAN2A1_Y442] gave a phosphorylation enrichment of 0.679. With FDCGMYSHLQG [LGR4_Y848_YF] the phosphorylation enrichment was 1. With EHLNRYISDTF [TTLL10_Y446] the phosphorylation enrichment was 0.567. GVSFIYTIDGS [DCX_Y105_R102S_YF] was tested, and the phosphorylation enrichment was 0.753. Work on SHLLRYLSWTV [CLCNKB_Y93] yielded a phosphorylation enrichment of 0.7. For YSQNICIQNRN [PKP2_Y631_Y631C], the phosphorylation enrichment was 0.641. For VGSIKYLKREW [KCNMA1_Y885_E884K], the phosphorylation enrichment was 0.431. Work on ITKNPYDPPGR yielded a phosphorylation enrichment of 0.645. YNNYGYGSDGF [HNRNPH3_Y161_N163S] was tested, and the phosphorylation enrichment was 0.683. Work on GHGEEYPAAGA [NOTCH3_Y2221] yielded a phosphorylation enrichment of 0.719. Work on KAESWYQTKFE [KRT75_Y342_E337K_YF] yielded a phosphorylation enrichment of 0.538. SFPSTYRYERG [INPPL1_Y661_P659S] gave a phosphorylation enrichment of 0.449. Work on SLQFEYVHYGG [CDC14A_Y591_S589F] yielded a phosphorylation enrichment of 0.742. With FEPWVYSFSFE [PRKDC_Y647_YF] the phosphorylation enrichment was 1.03. For TRSFDYMEGGD [FGF7_Y58_YF], the phosphorylation enrichment was 0.674. In the case of RRIHSYRRHLW [VHL_Y112_G114R], the phosphorylation enrichment is reported as 0.718. VVQGIYGFHHF [UFSP2_Y285_YF] was tested, and the phosphorylation enrichment was 0.502. Sequence RLLRGHDQSAY [HLA-C_Y137_Y137H] has a phosphorylation enrichment of 0.455. IEDPFYGNDSD [ACP1_Y133_YF] was tested, and the phosphorylation enrichment was 0.966. Sequence KKILCYIQGGS [HYDIN_Y4610_N4606K] has a phosphorylation enrichment of 0.758. KLMTEYKRRKQ [ARFGEF3_Y2029_K2031R] was tested, and the phosphorylation enrichment was 0.646. Work on NKHTNYTMEHI [ACTN1_Y708] yielded a phosphorylation enrichment of 0.296. In the case of IGKDLYANNVL [ACTA2_Y296_R292G], the phosphorylation enrichment is reported as 0.64. In the case of YMLYQYLKQIE [RPAP3_Y569_D564Y], the phosphorylation enrichment is reported as 4.47. Sequence NYDLDYDSVQP [MYC_Y16] has a phosphorylation enrichment of 1.03. PIFLFYLMDLS [ITGB2_Y131_D128Y_YF] was tested, and the phosphorylation enrichment was 1.31. In the case of PRDSGYSFETI [MAP1B_Y1921_S1917R_YF], the phosphorylation enrichment is reported as 1.14. For GDFLSYREFHS [ERBIN_Y1107_YF], the phosphorylation enrichment was 0.567. With LERYIYNREEY [HLA-DPB1_Y59_F64Y] the phosphorylation enrichment was 0.903.

The sequences below were run on Fer (mouse) in the same assay as above.
DENWFYMRAAS [RPS19_Y54_T55M] was tested, and the phosphorylation enrichment was 0.594. LSFSEYASVQV [SIRPA_Y496_P491L] was tested, and the phosphorylation enrichment was 5.53. ANFAKYGNPNE [BCHE_Y505] was tested, and the phosphorylation enrichment was 0.406. Work on VECRVYAEDPY [PCCA_Y401] yielded a phosphorylation enrichment of 0.708. LQFKNYQQLFD [MAN2A1_Y442] showed a phosphorylation enrichment of 0.391. Sequence FDCGMYSHLQG [LGR4_Y848_YF] has a phosphorylation enrichment of 1.64. In the case of EHLNRYISDTF [TTLL10_Y446], the phosphorylation enrichment is reported as 0.434. Sequence GVSFIYTIDGS [DCX_Y105_R102S_YF] has a phosphorylation enrichment of 0.491. SHLLRYLSWTV [CLCNKB_Y93] was tested, and the phosphorylation enrichment was 0.478. Sequence YSQNICIQNRN [PKP2_Y631_Y631C] has a phosphorylation enrichment of 0.498. Work on VGSIKYLKREW [KCNMA1_Y885_E884K] yielded a phosphorylation enrichment of 0.465. In the case of ITKNPYDPPGR, the phosphorylation enrichment is reported as 0.437. YNNYGYGSDGF [HNRNPH3_Y161_N163S] showed a phosphorylation enrichment of 0.458. GHGEEYPAAGA [NOTCH3_Y2221] gave a phosphorylation enrichment of 0.433. With KAESWYQTKFE [KRT75_Y342_E337K_YF] the phosphorylation enrichment was 0.594. For SFPSTYRYERG [INPPL1_Y661_P659S], the phosphorylation enrichment was 0.418. For SLQFEYVHYGG [CDC14A_Y591_S589F], the phosphorylation enrichment was 0.481. In the case of FEPWVYSFSFE [PRKDC_Y647_YF], the phosphorylation enrichment is reported as 1.34. TRSFDYMEGGD [FGF7_Y58_YF] showed a phosphorylation enrichment of 0.416. In the case of RRIHSYRRHLW [VHL_Y112_G114R], the phosphorylation enrichment is reported as 0.529. Work on VVQGIYGFHHF [UFSP2_Y285_YF] yielded a phosphorylation enrichment of 16.3. Work on RLLRGHDQSAY [HLA-C_Y137_Y137H] yielded a phosphorylation enrichment of 0.387. With IEDPFYGNDSD [ACP1_Y133_YF] the phosphorylation enrichment was 0.755. Sequence KKILCYIQGGS [HYDIN_Y4610_N4606K] has a phosphorylation enrichment of 0.58. For KLMTEYKRRKQ [ARFGEF3_Y2029_K2031R], the phosphorylation enrichment was 0.573. In the case of NKHTNYTMEHI [ACTN1_Y708], the phosphorylation enrichment is reported as 0.36. For IGKDLYANNVL [ACTA2_Y296_R292G], the phosphorylation enrichment was 0.619. In the case of YMLYQYLKQIE [RPAP3_Y569_D564Y], the phosphorylation enrichment is reported as 6.78. For NYDLDYDSVQP [MYC_Y16], the phosphorylation enrichment was 1.09. In the case of PIFLFYLMDLS [ITGB2_Y131_D128Y_YF], the phosphorylation enrichment is reported as 1.24. In the case of PRDSGYSFETI [MAP1B_Y1921_S1917R_YF], the phosphorylation enrichment is reported as 1.33. Work on GDFLSYREFHS [ERBIN_Y1107_YF] yielded a phosphorylation enrichment of 0.489. Work on LERYIYNREEY [HLA-DPB1_Y59_F64Y] yielded a phosphorylation enrichment of 0.519.

Each sequence was assayed against Fes (UniProt P07332) in the same assay as above.
Chain of Fes (P07332 whole entry, looked up): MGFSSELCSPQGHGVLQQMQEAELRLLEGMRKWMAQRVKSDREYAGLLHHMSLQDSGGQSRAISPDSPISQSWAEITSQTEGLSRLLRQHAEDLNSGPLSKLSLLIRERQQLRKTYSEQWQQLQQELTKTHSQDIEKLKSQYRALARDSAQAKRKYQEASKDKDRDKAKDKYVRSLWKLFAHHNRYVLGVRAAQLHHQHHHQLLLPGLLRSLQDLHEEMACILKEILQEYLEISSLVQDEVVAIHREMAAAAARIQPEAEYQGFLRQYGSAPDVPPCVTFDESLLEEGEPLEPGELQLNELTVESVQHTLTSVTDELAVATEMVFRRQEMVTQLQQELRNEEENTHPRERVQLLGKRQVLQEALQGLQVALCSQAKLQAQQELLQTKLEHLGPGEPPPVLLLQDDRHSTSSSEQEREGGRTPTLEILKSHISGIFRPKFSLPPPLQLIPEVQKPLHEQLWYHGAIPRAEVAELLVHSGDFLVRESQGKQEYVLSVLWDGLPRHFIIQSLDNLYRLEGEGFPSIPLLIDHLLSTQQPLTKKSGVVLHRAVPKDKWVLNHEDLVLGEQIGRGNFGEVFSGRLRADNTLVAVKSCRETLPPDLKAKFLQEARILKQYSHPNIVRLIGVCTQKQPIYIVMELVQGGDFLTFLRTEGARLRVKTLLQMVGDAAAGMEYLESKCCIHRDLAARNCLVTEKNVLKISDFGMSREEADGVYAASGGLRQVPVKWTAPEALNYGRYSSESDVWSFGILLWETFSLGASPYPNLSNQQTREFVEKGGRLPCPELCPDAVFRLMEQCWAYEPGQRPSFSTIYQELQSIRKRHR
For DENWFYMRAAS [RPS19_Y54_T55M], the phosphorylation enrichment was 1.52. Sequence LSFSEYASVQV [SIRPA_Y496_P491L] has a phosphorylation enrichment of 1.64. ANFAKYGNPNE [BCHE_Y505] gave a phosphorylation enrichment of 0.549. VECRVYAEDPY [PCCA_Y401] gave a phosphorylation enrichment of 1.73. With LQFKNYQQLFD [MAN2A1_Y442] the phosphorylation enrichment was 0.985. FDCGMYSHLQG [LGR4_Y848_YF] gave a phosphorylation enrichment of 1.31. Work on EHLNRYISDTF [TTLL10_Y446] yielded a phosphorylation enrichment of 0.641. GVSFIYTIDGS [DCX_Y105_R102S_YF] gave a phosphorylation enrichment of 1.31. SHLLRYLSWTV [CLCNKB_Y93] showed a phosphorylation enrichment of 1.23. With YSQNICIQNRN [PKP2_Y631_Y631C] the phosphorylation enrichment was 1.01. With VGSIKYLKREW [KCNMA1_Y885_E884K] the phosphorylation enrichment was 0.754. ITKNPYDPPGR gave a phosphorylation enrichment of 0.766. YNNYGYGSDGF [HNRNPH3_Y161_N163S] showed a phosphorylation enrichment of 0.784. In the case of GHGEEYPAAGA [NOTCH3_Y2221], the phosphorylation enrichment is reported as 0.821. Work on KAESWYQTKFE [KRT75_Y342_E337K_YF] yielded a phosphorylation enrichment of 1.07. SFPSTYRYERG [INPPL1_Y661_P659S] showed a phosphorylation enrichment of 0.813. For SLQFEYVHYGG [CDC14A_Y591_S589F], the phosphorylation enrichment was 0.904. FEPWVYSFSFE [PRKDC_Y647_YF] gave a phosphorylation enrichment of 1.65. For TRSFDYMEGGD [FGF7_Y58_YF], the phosphorylation enrichment was 1.18. RRIHSYRRHLW [VHL_Y112_G114R] was tested, and the phosphorylation enrichment was 0.699. VVQGIYGFHHF [UFSP2_Y285_YF] was tested, and the phosphorylation enrichment was 1.62. In the case of RLLRGHDQSAY [HLA-C_Y137_Y137H], the phosphorylation enrichment is reported as 0.587. With IEDPFYGNDSD [ACP1_Y133_YF] the phosphorylation enrichment was 1.55. For KKILCYIQGGS [HYDIN_Y4610_N4606K], the phosphorylation enrichment was 1.46. With KLMTEYKRRKQ [ARFGEF3_Y2029_K2031R] the phosphorylation enrichment was 0.572. NKHTNYTMEHI [ACTN1_Y708] was tested, and the phosphorylation enrichment was 0.549. IGKDLYANNVL [ACTA2_Y296_R292G] was tested, and the phosphorylation enrichment was 1.15. For YMLYQYLKQIE [RPAP3_Y569_D564Y], the phosphorylation enrichment was 1.11. Work on NYDLDYDSVQP [MYC_Y16] yielded a phosphorylation enrichment of 1.63. PIFLFYLMDLS [ITGB2_Y131_D128Y_YF] gave a phosphorylation enrichment of 3.28. PRDSGYSFETI [MAP1B_Y1921_S1917R_YF] showed a phosphorylation enrichment of 1.89. In the case of GDFLSYREFHS [ERBIN_Y1107_YF], the phosphorylation enrichment is reported as 0.686. In the case of LERYIYNREEY [HLA-DPB1_Y59_F64Y], the phosphorylation enrichment is reported as 1.25.

Each sequence was assayed against Fyn (UniProt P06241) in the same assay as above.
Chain of Fyn (P06241 whole entry, looked up): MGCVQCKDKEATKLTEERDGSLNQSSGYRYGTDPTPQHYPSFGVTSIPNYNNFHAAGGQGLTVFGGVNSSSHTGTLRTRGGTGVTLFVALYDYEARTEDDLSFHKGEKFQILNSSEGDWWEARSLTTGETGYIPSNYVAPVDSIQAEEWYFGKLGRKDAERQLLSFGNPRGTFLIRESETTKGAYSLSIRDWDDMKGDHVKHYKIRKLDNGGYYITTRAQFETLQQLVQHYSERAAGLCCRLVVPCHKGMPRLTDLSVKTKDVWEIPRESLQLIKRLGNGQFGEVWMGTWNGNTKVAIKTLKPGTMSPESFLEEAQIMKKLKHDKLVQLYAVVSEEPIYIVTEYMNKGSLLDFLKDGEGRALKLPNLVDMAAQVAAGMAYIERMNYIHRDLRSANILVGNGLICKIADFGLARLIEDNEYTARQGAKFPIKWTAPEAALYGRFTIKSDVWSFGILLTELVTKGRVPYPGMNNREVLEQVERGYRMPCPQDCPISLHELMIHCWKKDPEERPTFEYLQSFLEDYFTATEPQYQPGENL
Work on DENWFYMRAAS [RPS19_Y54_T55M] yielded a phosphorylation enrichment of 0.43. In the case of LSFSEYASVQV [SIRPA_Y496_P491L], the phosphorylation enrichment is reported as 3.8. ANFAKYGNPNE [BCHE_Y505] showed a phosphorylation enrichment of 0.307. In the case of VECRVYAEDPY [PCCA_Y401], the phosphorylation enrichment is reported as 0.612. For LQFKNYQQLFD [MAN2A1_Y442], the phosphorylation enrichment was 0.379. In the case of FDCGMYSHLQG [LGR4_Y848_YF], the phosphorylation enrichment is reported as 0.985. EHLNRYISDTF [TTLL10_Y446] was tested, and the phosphorylation enrichment was 0.434. Work on GVSFIYTIDGS [DCX_Y105_R102S_YF] yielded a phosphorylation enrichment of 2.18. Work on SHLLRYLSWTV [CLCNKB_Y93] yielded a phosphorylation enrichment of 0.468. Sequence YSQNICIQNRN [PKP2_Y631_Y631C] has a phosphorylation enrichment of 0.415. In the case of VGSIKYLKREW [KCNMA1_Y885_E884K], the phosphorylation enrichment is reported as 0.395. For ITKNPYDPPGR, the phosphorylation enrichment was 0.432. Work on YNNYGYGSDGF [HNRNPH3_Y161_N163S] yielded a phosphorylation enrichment of 0.507. Sequence GHGEEYPAAGA [NOTCH3_Y2221] has a phosphorylation enrichment of 0.426. KAESWYQTKFE [KRT75_Y342_E337K_YF] showed a phosphorylation enrichment of 0.518. SFPSTYRYERG [INPPL1_Y661_P659S] was tested, and the phosphorylation enrichment was 0.439. SLQFEYVHYGG [CDC14A_Y591_S589F] gave a phosphorylation enrichment of 0.516. FEPWVYSFSFE [PRKDC_Y647_YF] showed a phosphorylation enrichment of 6.63. With TRSFDYMEGGD [FGF7_Y58_YF] the phosphorylation enrichment was 0.535. With RRIHSYRRHLW [VHL_Y112_G114R] the phosphorylation enrichment was 0.65. With VVQGIYGFHHF [UFSP2_Y285_YF] the phosphorylation enrichment was 10.1. In the case of RLLRGHDQSAY [HLA-C_Y137_Y137H], the phosphorylation enrichment is reported as 0.336. With IEDPFYGNDSD [ACP1_Y133_YF] the phosphorylation enrichment was 0.556. Work on KKILCYIQGGS [HYDIN_Y4610_N4606K] yielded a phosphorylation enrichment of 0.499. With KLMTEYKRRKQ [ARFGEF3_Y2029_K2031R] the phosphorylation enrichment was 0.544. NKHTNYTMEHI [ACTN1_Y708] showed a phosphorylation enrichment of 0.388. Sequence IGKDLYANNVL [ACTA2_Y296_R292G] has a phosphorylation enrichment of 0.526. YMLYQYLKQIE [RPAP3_Y569_D564Y] gave a phosphorylation enrichment of 1.56. NYDLDYDSVQP [MYC_Y16] was tested, and the phosphorylation enrichment was 0.659. In the case of PIFLFYLMDLS [ITGB2_Y131_D128Y_YF], the phosphorylation enrichment is reported as 0.613. In the case of PRDSGYSFETI [MAP1B_Y1921_S1917R_YF], the phosphorylation enrichment is reported as 0.581. GDFLSYREFHS [ERBIN_Y1107_YF] gave a phosphorylation enrichment of 0.348. LERYIYNREEY [HLA-DPB1_Y59_F64Y] was tested, and the phosphorylation enrichment was 1.77.
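Further: 11-residue human phosphosite peptides and single-mutation variants displayed on the E. coli surface, counted by deep sequencing, each peptide's frequency after selection divided by its frequency in the unselected input library; frequency after pTyr selection over input frequency; kinase dosed for 20-30% of maximal phosphorylation in three min.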
